What was measured:
FCoV N [1] = molecular target: T1, FCoV N (Feline infectious peritonitis virus (strain 79-1146), UniProt P25909); assay: biolayer interferometry, His-tagged N immobilized on Ni-NTA biosensor; type: binding; conditions: read-out: Kd ± SD
Description: biolayer interferometry, His-tagged N immobilized on Ni-NTA biosensor on FCoV N

FCoV N [2] = molecular target: T1, FCoV N; assay: filter binding, Lineweaver-Burk secondary plot, N with radiolabeled vRNA […]' NCR
FCoV N [3] = molecular target: T1, FCoV N; assay: biolayer interferometry, inhibition of N binding to immobilized biotinylated vRNA […]' NCR
[4] = molecular target: T2, FCoV nucleocapsid protein N (Feline alphacoronavirus (FCoV/FIPV) …, UniProt P25909 1-377); assay: filter binding; 80 mM NaCl; Filter binding: 40 mM Tris-HCl pH 7.4, 80 mM NaCl (160, 320 in series), 20 mM KCl, 1 mM DTT, room temperature, 30-45 min; BLI: 20 mM Tris-HCl pH 7.4, 80 mM NaCl, 20 mM KCl, 1 mM DTT, room temperature; conditions: protein: recombinant; tags: C-terminal His (pET-30a(+), NdeI/HindIII); chain copies: 2; label: [alpha-32P]GTP, internal
T2 sequence: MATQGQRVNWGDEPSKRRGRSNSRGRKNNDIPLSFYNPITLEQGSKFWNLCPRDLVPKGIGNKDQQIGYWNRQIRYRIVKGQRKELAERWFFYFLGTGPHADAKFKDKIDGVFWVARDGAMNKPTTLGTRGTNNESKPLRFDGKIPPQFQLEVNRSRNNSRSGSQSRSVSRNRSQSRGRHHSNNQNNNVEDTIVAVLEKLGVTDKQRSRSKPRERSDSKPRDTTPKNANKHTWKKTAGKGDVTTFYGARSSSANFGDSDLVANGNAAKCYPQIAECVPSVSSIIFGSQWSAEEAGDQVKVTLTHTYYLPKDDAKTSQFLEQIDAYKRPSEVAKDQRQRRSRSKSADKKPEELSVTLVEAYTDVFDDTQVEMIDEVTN

[5] = molecular target: T2, FCoV nucleocapsid protein N; assay: filter binding; 320 mM NaCl; Filter binding: 40 mM Tris-HCl pH 7.4, 80 mM NaCl (160, 320 in series), 20 mM KCl, 1 mM DTT, room temperature, 30-45 min; BLI: 20 mM Tris-HCl pH 7.4, 80 mM NaCl, 20 mM KCl, 1 mM DTT, room temperature; conditions: protein: recombinant; tags: C-terminal His (pET-30a(+), NdeI/HindIII); chain copies: 2; label: [alpha-32P]GTP, internal
[6] = molecular target: T2, FCoV nucleocapsid protein N; assay: filter binding; 160 mM NaCl; Filter binding: 40 mM Tris-HCl pH 7.4, 80 mM NaCl (160, 320 in series), 20 mM KCl, 1 mM DTT, room temperature, 30-45 min; BLI: 20 mM Tris-HCl pH 7.4, 80 mM NaCl, 20 mM KCl, 1 mM DTT, room temperature; conditions: protein: recombinant; tags: C-terminal His (pET-30a(+), NdeI/HindIII); chain copies: 2; label: [alpha-32P]GTP, internal
[7] = molecular target: T2, FCoV nucleocapsid protein N; assay: BLI; 80 mM NaCl; kass 3.195e5 M-1s-1, kdis 5.931e-3 s-1; Filter binding: 40 mM Tris-HCl pH 7.4, 80 mM NaCl (160, 320 in series), 20 mM KCl, 1 mM DTT, room temperature, 30-45 min; BLI: 20 mM Tris-HCl pH 7.4, 80 mM NaCl, 20 mM KCl, 1 mM DTT, room temperature; conditions: protein: recombinant; tags: C-terminal His (pET-30a(+), NdeI/HindIII); chain copies: 2

How did the Kd (FCoV N [1]) turn out when `O=C(O)c1cccc2c1NC(c1cccc(Br)c1)C1CC=CC21` (stereo not shown) [K31, 4-(3-Bromophenyl)-3a,4,5,9b-tetrahydro-3H-cycloppenta [c] quinoline-6-carboxylix acid] was run?
Its Kd is 350 ± 17 nM.

What about the Ki (FCoV N [2]) of the same molecule?
The Ki was ~246 nM.

And the IC50 (FCoV N [3])?
Its IC50 is ~850 nM.

How did the Kd [4] turn out when ACUUUUAAAGUAAAGUGAGUGUAGCGUGGCUAUAAC (ssRNA) [vRNA 5' NCR (36 nt, radiolabeled)] was run?
The Kd was 29 ± 1.6 nM.

And the Kd [5]?
Its Kd is 35 ± 7 nM.

What about the Kd [6] of the same molecule?
The Kd was 30.7 ± 7.5 nM.

With ACUUUUAAAGUAAAGUGAGUGUAGCGUGGCUAUAAC (ssRNA) [vRNA 5' NCR (36 nt, biotinylated)] as the molecule, how does the Kd [7] read?
The Kd was 18 ± 1.8 nM.
